According to the supplement of paper PMC5998384:

Legend:
[1] = system: HeLa Kyoto; assay: solubility change mitosis vs G1/S (difference of NP-40 vs SDS log2 ratios) (log2 ratio difference); higher = more soluble in mitosis
[2] = system: HeLa Kyoto; assay: solubility in G1/S (NP-40 vs SDS abundance) (log2 ratio); higher = more soluble; details: cell cycle stage: G1/S
[3] = system: HeLa Kyoto; assay: melting temperature (median over replicates), in situ; higher = more thermally stable
[4] = system: HeLa Kyoto; assay: thermal stability score vs G1/S (z-score of summed log2 fold changes over temperatures); higher = more thermally stable than in G1/S
[5] = cell cycle stage: early G1 (4.5 h after nocodazole release)
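Throughout, for melting temperature (median over replicates), in situ: HeLa Kyoto cells synchronized by double thymidine or nocodazole block, proteins quantified by TMT10plex mass spectrometry, three independent biological replicates.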
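Throughout, for solubility change mitosis vs G1/S (difference of NP-40 vs SDS log2 ratios): synchronized HeLa Kyoto cells (double thymidine block for G1/S, nocodazole release for mitosis), protein amounts in NP-40 versus SDS lysates quantified by mass spectrometry, three biological replicates.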
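Throughout, for solubility in G1/S (NP-40 vs SDS abundance): HeLa Kyoto cells arrested at G1/S by double thymidine block, proteins quantified by TMT10plex mass spectrometry in mild NP-40 versus SDS extracts, three biological replicates.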
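Throughout, for thermal stability score vs G1/S (z-score of summed log2 fold changes over temperatures): synchronized HeLa Kyoto cells, proteins quantified by TMT10plex mass spectrometry, three biological replicates, mitosis taken 0.5 h after nocodazole release, G1/S directly after double thymidine block.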

Row | Sequence | solubility change mitosis (log2) [1] | solubility in G1/S (log2) [2] | melting temperature ([3]; cell cycle stage: G1/S) [°C] | melting temperature ([3]; cell cycle stage: mitosis) [°C] | thermal stability score [4, 5] | thermal stability score ([4]; cell cycle stage: mitosis)
1 | MGDPAPARSLDDIDLSALRDPAGIFELVEVVGNGTYGQVYKGRHVKTGQLAAIKVMDVTEDEEEEIKQEINMLKKYSHHRNIATYYGAFIKKSPPGNDDQLWLVMEFCGAGSVTDLVKNTKGNALKEDCIAYICREILRGLAHLHAHKVIHRDIKGQNVLLTENAEVKLVDFGVSAQLDRTVGRRNTFIGTPYWMAPEVIACDENPDATYDYRSDIWSLGITAIEMAEGAPPLCDMHPMRALFLIPRNPPPRLKSKKWSKKFIDFIDTCLIKTYLSRPPTEQLLKFPFIRDQPTERQVRIQLKDHIDRSRKKRGEKEETEYEYSGSEEEDDSHGEEGEPSSIMNVPGESTLRREFLRLQQENKSNSEALKQQQQLQQQQQRDPEAHIKHLLHQRQRRIEEQKEERRRVEEQQRREREQRKLQEKEQQRRLEDMQALRREEERRQAEREQEYKRKQLEEQRQSERLQRQLQQEHAYLKSLQQQQQQQQLQKQQQQQLLPGDRKPLYHYGRGMNPADKPAWAREVEERTRMNKQQNSPLAKSKPGSTGPEPPIPQASPGPPGPLSQTPPMQRPVEPQEGPHKSLVAHRVPLKPYAAPVPRSQSLQDQPTRNLAAFPASHDPDPAIPAPTATPSARGAVIRQNSDPTSEGPGPSPNPPAWVRPDNEAPPKVPQRTSSIATALNTSGAGGSRPAQAVRARPRSNSAWQIYLQRRAERGTPKPPGPPAQPPGPPNASSNPDLRRSDPGWERSDSVLPASHGHLPQAGSLERNRVGVSSKPDSSPVLSPGNKAKPDDHRSRPGRPADFVLLKERTLDEAPRPPKKAMDYSSSSEEVESSEDDEEEGEGGPAEGSRDTPGGRSDGDTDSVSTMVVHDVEEITGTQPPYGGGTMVVQRTPEEERNLLHADSNGYTNLPDVVQPSHSPTENSKGQSPPSKDGSGDYQSRGLVKAPGKSSFTMFVDLGIYQPGGSGDSIPITALVGGEGTRLDQLQYDVRKGSVVNVNPTNTRAHSETPEIRKYKKRFNSEILCAALWGVNLLVGTENGLMLLDRSGQGKVYGLIGRRRFQQMDVLEGLNLLITISGKRNKLRVYYLSWLRNKILHNDPEVEKKQGWTTVGDMEGCGHYRVVKYERIKFLVIALKSSVEVYAWAPKPYHKFMAFKSFADLPHRPLLVDLTVEEGQRLKVIYGSSAGFHAVDVDSGNSYDIYIPVHIQSQITPHAIIFLPNTDGMEMLLCYEDEGVYVNTYGRIIKDVVLQWGEMPTSVAYICSNQIMGWGEKAIEIRSVETGHLDGVFMHKRAQRLKFLCERNDKVFFASVRSGGSSQVYFMTLNRNCIMNW [MINK1] | 0.157 | -0.0708 | 49.8 | 50.7 | 0.759 | 2.05
2 | MGDSHVDTSSTVSEAVAEEVSLFSMTDMILFSLIVGLLTYWFLFRKKKEEVPEFTKIQTLTSSVRESSFVEKMKKTGRNIIVFYGSQTGTAEEFANRLSKDAHRYGMRGMSADPEEYDLADLSSLPEIDNALVVFCMATYGEGDPTDNAQDFYDWLQETDVDLSGVKFAVFGLGNKTYEHFNAMGKYVDKRLEQLGAQRIFELGLGDDDGNLEEDFITWREQFWPAVCEHFGVEATGEESSIRQYELVVHTDIDAAKVYMGEMGRLKSYENQKPPFDAKNPFLAAVTTNRKLNQGTERHLMHLELDISDSKIRYESGDHVAVYPANDSALVNQLGKILGADLDVVMSLNNLDEESNKKHPFPCPTSYRTALTYYLDITNPPRTNVLYELAQYASEPSEQELLRKMASSSGEGKELYLSWVVEARRHILAILQDCPSLRPPIDHLCELLPRLQARYYSIASSSKVHPNSVHICAVVVEYETKAGRINKGVATNWLRAKEPAGENGGRALVPMFVRKSQFRLPFKATTPVIMVGPGTGVAPFIGFIQERAWLRQQGKEVGETLLYYGCRRSDEDYLYREELAQFHRDGALTQLNVAFSREQSHKVYVQHLLKQDREHLWKLIEGGAHIYVCGDARNMARDVQNTFYDIVAELGAMEHAQAVDYIKKLMTKGRYSLDVWS [POR] | -0.125 | 0.0892 | 51.6 | 51.1 | 4.17 | 5.83
3 | MGEEDYYLELCERPVQFEKANPVNCVFFDEANKQVFAVRSGGATGVVVKGPDDRNPISFRMDDKGEVKCIKFSLENKILAVQRTSKTVDFCNFIPDNSQLEYTQECKTKNANILGFCWTSSTEIVFITDQGIEFYQVLPEKRSLKLLKSHNLNVNWYMYCPESAVILLSTTVLENVLQPFHFRAGTMSKLPKFEIELPAAPKSTKPSLSERDIAMATIYGQLYVLFLRHHSRTSNSTGAEVVLYHLPREGACKKMHILKLNRTGKFALNVVDNLVVVHHQDTETSVIFDIKLRGEFDGSVTFHHPVLPARSIQPYQIPITGPAAVTSQSPVPCKLYSSSWIVFQPDIIISASQGYLWNLQVKLEPIVNLLPDKGRLMDFLLQRKECKMVILSVCSQMLSESDRASLPVIATVFDKLNHEYKKYLDAEQSYAMAVEAGQSRSSPLLKRPVRTQAVLDQSDVYTHVLSAFVEKKEMPHKFVIAVLMEYIRSLNQFQIAVQHYLHELVIKTLVQHNLFYMLHQFLQYHVLSDSKPLACLLLSLESFYPPAHQLSLDMLKRLSTANDEIVEVLLSKHQVLAALRFIRGIGGHDNISARKFLDAAKQTEDNMLFYTIFRFFEQRNQRLRGSPNFTPGEHCEEHVAFFKQIFGDQALMRPTTF [C18ORF8] | -0.121 | -0.0478 | 51.1 | 50.8 | 0.23 | 0.326
4 | MGEIKVSPDYNWFRGTVPLKKIIVDDDDSKIWSLYDAGPRSIRCPLIFLPPVSGTADVFFRQILALTGWGYRVIALQYPVYWDHLEFCDGFRKLLDHLQLDKVHLFGASLGGFLAQKFAEYTHKSPRVHSLILCNSFSDTSIFNQTWTANSFWLMPAFMLKKIVLGNFSSGPVDPMMADAIDFMVDRLESLGQSELASRLTLNCQNSYVEPHKIRDIPVTIMDVFDQSALSTEAKEEMYKLYPNARRAHLKTGGNFPYLCRSAEVNLYVQIHLLQFHGTKYAAIDPSMVSAEELEVQKGSLGISQEEQ [SPG21] | -0.157 | 0.00691 | 49.5 | 49 | 0.11 | 0.524
5 | MGELPLDINIQEPRWDQSTFLGRARHFFTVTDPRNLLLSGAQLEASRNIVQNYRAGVVTPGITEDQLWRAKYVYDSAFHPDTGEKVVLIGRMSAQVPMNMTITGCMLTFYRKTPTVVFWQWVNQSFNAIVNYSNRSGDTPITVRQLGTAYVSATTGAVATALGLKSLTKHLPPLVGRFVPFAAVAAANCINIPLMRQRELQVGIPVADEAGQRLGYSVTAAKQGIFQVVISRICMAIPAMAIPPLIMDTLEKKDFLKRRPWLGAPLQVGLVGFCLVFATPLCCALFPQKSSIHISNLEPELRAQIHEQNPSVEVVYYNKGL [SFXN3] | -0.0789 | 0.286 | 53.6 | 53.5 | -0.249 | -0.897
6 | MGETMSKRLKLHLGGEAEMEERAFVNPFPDYEAAAGALLASGAAEETGCVRPPATTDEPGLPFHQDGKIIHNFIRRIQTKIKDLLQQMEEGLKTADPHDCSAYTGWTGIALLYLQLYRVTCDQTYLLRSLDYVKRTLRNLNGRRVTFLCGDAGPLAVGAVIYHKLRSDCESQECVTKLLQLQRSVVCQESDLPDELLYGRAGYLYALLYLNTEIGPGTVCESAIKEVVNAIIESGKTLSREERKTERCPLLYQWHRKQYVGAAHGMAGIYYMLMQPAAKVDQETLTEMVKPSIDYVRHKKFRSGNYPSSLSNETDRLVHWCHGAPGVIHMLMQAYKVFKEEKYLKEAMECSDVIWQRGLLRKGYGICHGTAGNGYSFLSLYRLTQDKKYLYRACKFAEWCLDYGAHGCRIPDRPYSLFEGMAGAIHFLSDVLGPETSRFPAFELDSSKRD [LANCL2] | -0.119 | -0.0171 | 57.7 | 55.4 | -0.346 | -0.592
7 | MGGCTVKPQLLLLALVLHPWNPCLGADSEKPSSIPTDKLLVITVATKESDGFHRFMQSAKYFNYTVKVLGQGEEWRGGDGINSIGGGQKVRLMKEVMEHYADQDDLVVMFTECFDVIFAGGPEEVLKKFQKANHKVVFAADGILWPDKRLADKYPVVHIGKRYLNSGGFIGYAPYVNRIVQQWNLQDNDDDQLFYTKVYIDPLKREAINITLDHKCKIFQTLNGAVDEVVLKFENGKARAKNTFYETLPVAINGNGPTKILLNYFGNYVPNSWTQDNGCTLCEFDTVDLSAVDVHPNVSIGVFIEQPTPFLPRFLDILLTLDYPKEALKLFIHNKEVYHEKDIKVFFDKAKHEIKTIKIVGPEENLSQAEARNMGMDFCRQDEKCDYYFSVDADVVLTNPRTLKILIEQNRKIIAPLVTRHGKLWSNFWGALSPDGYYARSEDYVDIVQGNRVGVWNVPYMANVYLIKGKTLRSEMNERNYFVRDKLDPDMALCRNAREMGVFMYISNRHEFGRLLSTANYNTSHYNNDLWQIFENPVDWKEKYINRDYSKIFTENIVEQPCPDVFWFPIFSEKACDELVEEMEHYGKWSGGKHHDSRISGGYENVPTDDIHMKQVDLENVWLHFIREFIAPVTLKVFAGYYTKGFALLNFVVKYSPERQRSLRPHHDASTFTINIALNNVGEDFQGGGCKFLRYNCSIESPRKGWSFMHPGRLTHLHEGLPVKNGTRYIAVSFIDP [PLOD2] | -0.123 | 0.13 | 53.9 | 54.6 | 3.26 | 4.23
